{"source": "patent US20190338009A1", "about": "(ZEALAND PHARMA A S, published 2019)", "binders": {"B1": {"name": "Compound 1 (peptide)", "peptide": "H-H[Aib]EGSFTSELATILDEQAARDFIAWLIAHKITD-OH", "SMILES": "CC[C@H](C)[C@H](NC(=O)[C@H](CC(C)C)NC(=O)[C@H](Cc1c[nH]c2ccccc12)NC(=O)[C@H](C)NC(=O)[C@@H](NC(=O)[C@H](Cc1ccccc1)NC(=O)[C@H](CC(=O)O)NC(=O)[C@H](CCCNC(=N)N)NC(=O)[C@H](C)NC(=O)[C@H](C)NC(=O)[C@H](CCC(N)=O)NC(=O)[C@H](CCC(=O)O)NC(=O)[C@H](CC(=O)O)NC(=O)[C@H](CC(C)C)NC(=O)[C@@H](NC(=O)[C@@H](NC(=O)[C@H](C)NC(=O)[C@H](CC(C)C)NC(=O)[C@H](CCC(=O)O)NC(=O)[C@H](CO)NC(=O)[C@@H](NC(=O)[C@H](Cc1ccccc1)NC(=O)[C@H](CO)NC(=O)CNC(=O)[C@H](CCC(=O)O)NC(=O)C(C)(C)NC(=O)[C@@H](N)Cc1c[nH]cn1)[C@@H](C)O)[C@@H](C)O)[C@@H](C)CC)[C@@H](C)CC)C(=O)N[C@@H](C)C(=O)N[C@@H](Cc1c[nH]cn1)C(=O)N[C@@H](CCCCN)C(=O)N[C@H](C(=O)N[C@H](C(=O)N[C@@H](CC(=O)O)C(=O)O)[C@@H](C)O)[C@@H](C)CC"}, "B2": {"name": "Compound 24 (peptide)", "peptide": "H-H[Aib]EGSFTSELATILDEQAARDFIAWLQAHKITD-OH", "SMILES": "CC[C@H](C)[C@H](NC(=O)[C@H](Cc1ccccc1)NC(=O)[C@H](CC(=O)O)NC(=O)[C@H](CCCNC(=N)N)NC(=O)[C@H](C)NC(=O)[C@H](C)NC(=O)[C@H](CCC(N)=O)NC(=O)[C@H](CCC(=O)O)NC(=O)[C@H](CC(=O)O)NC(=O)[C@H](CC(C)C)NC(=O)[C@@H](NC(=O)[C@@H](NC(=O)[C@H](C)NC(=O)[C@H](CC(C)C)NC(=O)[C@H](CCC(=O)O)NC(=O)[C@H](CO)NC(=O)[C@@H](NC(=O)[C@H](Cc1ccccc1)NC(=O)[C@H](CO)NC(=O)CNC(=O)[C@H](CCC(=O)O)NC(=O)C(C)(C)NC(=O)[C@@H](N)Cc1c[nH]cn1)[C@@H](C)O)[C@@H](C)O)[C@@H](C)CC)C(=O)N[C@@H](C)C(=O)N[C@@H](Cc1c[nH]c2ccccc12)C(=O)N[C@@H](CC(C)C)C(=O)N[C@@H](CCC(N)=O)C(=O)N[C@@H](C)C(=O)N[C@@H](Cc1c[nH]cn1)C(=O)N[C@@H](CCCCN)C(=O)N[C@H](C(=O)N[C@H](C(=O)N[C@@H](CC(=O)O)C(=O)O)[C@@H](C)O)[C@@H](C)CC"}, "B3": {"name": "Compound 25 (peptide)", "peptide": "H-H[Aib]EGSFTSELATILDEQAARDFIAWLIAQKITD-OH", "SMILES": "CC[C@H](C)[C@H](NC(=O)[C@H](CC(C)C)NC(=O)[C@H](Cc1c[nH]c2ccccc12)NC(=O)[C@H](C)NC(=O)[C@@H](NC(=O)[C@H](Cc1ccccc1)NC(=O)[C@H](CC(=O)O)NC(=O)[C@H](CCCNC(=N)N)NC(=O)[C@H](C)NC(=O)[C@H](C)NC(=O)[C@H](CCC(N)=O)NC(=O)[C@H](CCC(=O)O)NC(=O)[C@H](CC(=O)O)NC(=O)[C@H](CC(C)C)NC(=O)[C@@H](NC(=O)[C@@H](NC(=O)[C@H](C)NC(=O)[C@H](CC(C)C)NC(=O)[C@H](CCC(=O)O)NC(=O)[C@H](CO)NC(=O)[C@@H](NC(=O)[C@H](Cc1ccccc1)NC(=O)[C@H](CO)NC(=O)CNC(=O)[C@H](CCC(=O)O)NC(=O)C(C)(C)NC(=O)[C@@H](N)Cc1c[nH]cn1)[C@@H](C)O)[C@@H](C)O)[C@@H](C)CC)[C@@H](C)CC)C(=O)N[C@@H](C)C(=O)N[C@@H](CCC(N)=O)C(=O)N[C@@H](CCCCN)C(=O)N[C@H](C(=O)N[C@H](C(=O)N[C@@H](CC(=O)O)C(=O)O)[C@@H](C)O)[C@@H](C)CC"}, "B4": {"name": "Compound 26 (peptide)", "peptide": "H-H[Aib]EGTFTSELATILDEQAARDFIAWLQAQKITD-OH", "SMILES": "CC[C@H](C)[C@H](NC(=O)[C@H](Cc1ccccc1)NC(=O)[C@H](CC(=O)O)NC(=O)[C@H](CCCNC(=N)N)NC(=O)[C@H](C)NC(=O)[C@H](C)NC(=O)[C@H](CCC(N)=O)NC(=O)[C@H](CCC(=O)O)NC(=O)[C@H](CC(=O)O)NC(=O)[C@H](CC(C)C)NC(=O)[C@@H](NC(=O)[C@@H](NC(=O)[C@H](C)NC(=O)[C@H](CC(C)C)NC(=O)[C@H](CCC(=O)O)NC(=O)[C@H](CO)NC(=O)[C@@H](NC(=O)[C@H](Cc1ccccc1)NC(=O)[C@@H](NC(=O)CNC(=O)[C@H](CCC(=O)O)NC(=O)C(C)(C)NC(=O)[C@@H](N)Cc1c[nH]cn1)[C@@H](C)O)[C@@H](C)O)[C@@H](C)O)[C@@H](C)CC)C(=O)N[C@@H](C)C(=O)N[C@@H](Cc1c[nH]c2ccccc12)C(=O)N[C@@H](CC(C)C)C(=O)N[C@@H](CCC(N)=O)C(=O)N[C@@H](C)C(=O)N[C@@H](CCC(N)=O)C(=O)N[C@@H](CCCCN)C(=O)N[C@H](C(=O)N[C@H](C(=O)N[C@@H](CC(=O)O)C(=O)O)[C@@H](C)O)[C@@H](C)CC"}, "B5": {"name": "Compound 27 (peptide)", "peptide": "H-H[Aib]EGTFTSELSTILDEQAARDFIAWLHAQKITD-OH", "SMILES": "CC[C@H](C)[C@H](NC(=O)[C@H](Cc1ccccc1)NC(=O)[C@H](CC(=O)O)NC(=O)[C@H](CCCNC(=N)N)NC(=O)[C@H](C)NC(=O)[C@H](C)NC(=O)[C@H](CCC(N)=O)NC(=O)[C@H](CCC(=O)O)NC(=O)[C@H](CC(=O)O)NC(=O)[C@H](CC(C)C)NC(=O)[C@@H](NC(=O)[C@@H](NC(=O)[C@H](CO)NC(=O)[C@H](CC(C)C)NC(=O)[C@H](CCC(=O)O)NC(=O)[C@H](CO)NC(=O)[C@@H](NC(=O)[C@H](Cc1ccccc1)NC(=O)[C@@H](NC(=O)CNC(=O)[C@H](CCC(=O)O)NC(=O)C(C)(C)NC(=O)[C@@H](N)Cc1c[nH]cn1)[C@@H](C)O)[C@@H](C)O)[C@@H](C)O)[C@@H](C)CC)C(=O)N[C@@H](C)C(=O)N[C@@H](Cc1c[nH]c2ccccc12)C(=O)N[C@@H](CC(C)C)C(=O)N[C@@H](Cc1c[nH]cn1)C(=O)N[C@@H](C)C(=O)N[C@@H](CCC(N)=O)C(=O)N[C@@H](CCCCN)C(=O)N[C@H](C(=O)N[C@H](C(=O)N[C@@H](CC(=O)O)C(=O)O)[C@@H](C)O)[C@@H](C)CC"}, "B6": {"name": "Compound 28 (peptide)", "peptide": "H-H[Aib]EGSFTSELATILDEQAARDFIAWLYAHKITD-OH", "SMILES": "CC[C@H](C)[C@H](NC(=O)[C@H](Cc1ccccc1)NC(=O)[C@H](CC(=O)O)NC(=O)[C@H](CCCNC(=N)N)NC(=O)[C@H](C)NC(=O)[C@H](C)NC(=O)[C@H](CCC(N)=O)NC(=O)[C@H](CCC(=O)O)NC(=O)[C@H](CC(=O)O)NC(=O)[C@H](CC(C)C)NC(=O)[C@@H](NC(=O)[C@@H](NC(=O)[C@H](C)NC(=O)[C@H](CC(C)C)NC(=O)[C@H](CCC(=O)O)NC(=O)[C@H](CO)NC(=O)[C@@H](NC(=O)[C@H](Cc1ccccc1)NC(=O)[C@H](CO)NC(=O)CNC(=O)[C@H](CCC(=O)O)NC(=O)C(C)(C)NC(=O)[C@@H](N)Cc1c[nH]cn1)[C@@H](C)O)[C@@H](C)O)[C@@H](C)CC)C(=O)N[C@@H](C)C(=O)N[C@@H](Cc1c[nH]c2ccccc12)C(=O)N[C@@H](CC(C)C)C(=O)N[C@@H](Cc1ccc(O)cc1)C(=O)N[C@@H](C)C(=O)N[C@@H](Cc1c[nH]cn1)C(=O)N[C@@H](CCCCN)C(=O)N[C@H](C(=O)N[C@H](C(=O)N[C@@H](CC(=O)O)C(=O)O)[C@@H](C)O)[C@@H](C)CC"}, "B7": {"name": "Compound 29 (peptide)", "peptide": "H-H[Aib]EGTFTDELATILDEQAARDFIAWLQAQKITD-OH", "SMILES": "CC[C@H](C)[C@H](NC(=O)[C@H](Cc1ccccc1)NC(=O)[C@H](CC(=O)O)NC(=O)[C@H](CCCNC(=N)N)NC(=O)[C@H](C)NC(=O)[C@H](C)NC(=O)[C@H](CCC(N)=O)NC(=O)[C@H](CCC(=O)O)NC(=O)[C@H](CC(=O)O)NC(=O)[C@H](CC(C)C)NC(=O)[C@@H](NC(=O)[C@@H](NC(=O)[C@H](C)NC(=O)[C@H](CC(C)C)NC(=O)[C@H](CCC(=O)O)NC(=O)[C@H](CC(=O)O)NC(=O)[C@@H](NC(=O)[C@H](Cc1ccccc1)NC(=O)[C@@H](NC(=O)CNC(=O)[C@H](CCC(=O)O)NC(=O)C(C)(C)NC(=O)[C@@H](N)Cc1c[nH]cn1)[C@@H](C)O)[C@@H](C)O)[C@@H](C)O)[C@@H](C)CC)C(=O)N[C@@H](C)C(=O)N[C@@H](Cc1c[nH]c2ccccc12)C(=O)N[C@@H](CC(C)C)C(=O)N[C@@H](CCC(N)=O)C(=O)N[C@@H](C)C(=O)N[C@@H](CCC(N)=O)C(=O)N[C@@H](CCCCN)C(=O)N[C@H](C(=O)N[C@H](C(=O)N[C@@H](CC(=O)O)C(=O)O)[C@@H](C)O)[C@@H](C)CC"}}, "note": "Square brackets hold non-standard residues; d marks the D form. Aib = CC(C)(N)C(=O)O"}
{"biological_target": "human glucagon-like peptide 1 receptor (GLP-1R) (human, UniProt P43220 24-463)", "assay": "cell-based or functional assay", "units": {"EC50 GLP-1 (nM); cAMP AlphaScreen, HEK293 cells expressing human GLP-1R": "nM"}}
{"binder": "B1", "EC50 GLP-1 (nM); cAMP AlphaScreen, HEK293 cells expressing human GLP-1R": 0.014}
{"binder": "B2", "EC50 GLP-1 (nM); cAMP AlphaScreen, HEK293 cells expressing human GLP-1R": 0.042}
{"binder": "B3", "EC50 GLP-1 (nM); cAMP AlphaScreen, HEK293 cells expressing human GLP-1R": 0.008}
{"binder": "B4", "EC50 GLP-1 (nM); cAMP AlphaScreen, HEK293 cells expressing human GLP-1R": 0.013}
{"binder": "B5", "EC50 GLP-1 (nM); cAMP AlphaScreen, HEK293 cells expressing human GLP-1R": 0.12}
{"binder": "B6", "EC50 GLP-1 (nM); cAMP AlphaScreen, HEK293 cells expressing human GLP-1R": 0.11}
{"binder": "B7", "EC50 GLP-1 (nM); cAMP AlphaScreen, HEK293 cells expressing human GLP-1R": 0.044}
{"biological_target": "T1, human GLP-2 receptor (hGLP2-R) (human, UniProt O95838 1-553)", "T1 sequence (looked up)": "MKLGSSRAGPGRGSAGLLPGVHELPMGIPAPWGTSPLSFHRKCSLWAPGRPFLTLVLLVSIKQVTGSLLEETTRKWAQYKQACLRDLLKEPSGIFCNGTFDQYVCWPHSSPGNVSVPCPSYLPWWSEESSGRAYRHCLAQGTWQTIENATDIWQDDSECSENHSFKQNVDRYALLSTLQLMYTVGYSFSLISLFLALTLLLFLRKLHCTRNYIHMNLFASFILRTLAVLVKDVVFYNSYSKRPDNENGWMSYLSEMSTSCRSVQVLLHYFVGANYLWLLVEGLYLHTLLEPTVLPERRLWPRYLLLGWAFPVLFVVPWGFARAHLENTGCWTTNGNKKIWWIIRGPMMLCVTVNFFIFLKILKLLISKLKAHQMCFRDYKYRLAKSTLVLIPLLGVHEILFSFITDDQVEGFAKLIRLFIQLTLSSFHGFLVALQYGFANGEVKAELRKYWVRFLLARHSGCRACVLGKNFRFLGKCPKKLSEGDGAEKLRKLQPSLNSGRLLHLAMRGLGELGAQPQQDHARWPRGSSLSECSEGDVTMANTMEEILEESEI", "assay": "cell-based or functional assay", "units": {"EC50 GLP-2 (nM); cAMP AlphaScreen, HEK293 cells expressing human GLP-2R": "nM"}}
{"binder": "B1", "EC50 GLP-2 (nM); cAMP AlphaScreen, HEK293 cells expressing human GLP-2R": 0.036}
{"binder": "B2", "EC50 GLP-2 (nM); cAMP AlphaScreen, HEK293 cells expressing human GLP-2R": 0.049}
{"binder": "B3", "EC50 GLP-2 (nM); cAMP AlphaScreen, HEK293 cells expressing human GLP-2R": 0.062}
{"binder": "B4", "EC50 GLP-2 (nM); cAMP AlphaScreen, HEK293 cells expressing human GLP-2R": 0.19}
{"binder": "B5", "EC50 GLP-2 (nM); cAMP AlphaScreen, HEK293 cells expressing human GLP-2R": 0.37}
{"binder": "B6", "EC50 GLP-2 (nM); cAMP AlphaScreen, HEK293 cells expressing human GLP-2R": 0.024}
{"binder": "B7", "EC50 GLP-2 (nM); cAMP AlphaScreen, HEK293 cells expressing human GLP-2R": 0.11}
